Series [1] deals with Zucker diabetic fatty rats. Put plainly: Chronic glucoregulatory effects in diabetic ZDF rats. In kind it is in vivo. The note with it: single s.c. dose. As for the experimental part: A total of 55 male Zucker diabetic fatty rats (ZDF-Lepr^fa/Crl) 6 weeks of age, and 180-200 gram (Charles River, USA) were single-housed and blood glucose and body weight were monitored bi-weekly for 2-4 weeks. Based on morning-fed blood glucose, outliers were excluded and 40 diabetic rats (average weight 340 g, blood glucose 9.7 to 22.5 mM, average 16.2 mM) were stratified into 4 groups of n=10. […]
Body-weights were monitored daily from day −3 throughout the study. Food and water intake were monitored on day −3 and daily for the first 11 days after the first dose then bi-weekly for the rest of the study period. Blood sampling was performed for pharmacokinetic studies 2 days after the first dose and then once weekly. HbA1c was measured day −3, and days 26 and 55 before OGTT, and the gastric emptying test was performed on day 26. For the OGTT, rats were semi-fasted overnight (60%) then PO glucose (2 g/kg in 10 mL) was administered at t=0. Blood glucose and insulin were measured at t=−60, −15, 0, 15, 30, 60 and 120 minutes after the glucose challenge. Gastric emptying was measured by administration of acetaminophen (100 mg/kg) with the OGTT on day 26, and blood levels were measured at 15, 30, 60 and 120 min.

The conditions of series [2]: pH 9.4.
For series [3] the following is noted: rat, in vivo, sc.
Description: Each syringe contained 0.45 or 0.98 μmol peptide at 1.9 μmol peptide g^−1 slurry. The syringes were weighed prior to and after dosing to verify the mass delivered to each rat. Blood samples (300 μL) were drawn and the serum was frozen at −80° C. until analysis.
Frozen serum samples were thawed on ice and diluted between 5 and 20-fold in the provided rat serum. […] Data replicates were averaged and fitted to appropriate pharmacokinetic models.
The conditions of series [4]: rat, in vivo.
Description: The content of each syringe was administered SC in the flank of six cannulated male Sprague Dawley rats (average weight 270 g).
(§1) Serum samples were treated with 3 vol of ACN and centrifuged. The supernatant was dried, reconstituted and applied to a HPLC MS/MS system. The sample was eluted by a water/ACN gradient containing 0.1% formic acid. […] HPLC-MS/MS analyses were carried out on a Sciex 5500 QTrap® mass spectrometer coupled with a Shimadzu HPLC system. The Shimadzu HPLC system consisted of two LC-30AD HPLC pumps and a SIL-30AC autosampler with a 100-μL loop installed. […] The mass spectrometer was operated in positive electrospray ionization mode and the resolution setting used was the unit for both Q1 and Q3. […] Peak-area integrations were performed using Analyst software (version 1.5.2) from Sciex.
(§2) C vs. t curves (text) were analyzed using GraphPad Prism by non-linear regression of eq X (text) with weighting by 1/SD2; since ka>>k1 we modeled the single exponential phase of the terminal half-life using data points later than the first few days.
The conditions of series [5]: mouse, in vivo.
Description: B. The small amounts of microspheres needed in the mouse required a diluent to allow accurate dosing. […] This diluent served to keep the microspheres in a homogeneous suspension prior to and during administration and allowed dosing of convenient volumes. […] Syringes (0.5 mL U-100 insulin syringe with fixed 29 g×½″ needle, BD) were filled with the suspended microspheres under aseptic conditions. The needle assembly of each syringe was purged of air and weighed prior to and following dosing to determine the average mass of slurry delivered to each mouse.
Serum was prepared and frozen at −80° C. until analysis.
as §1, §2

The values below come from US20200164083A1 (priority 2016, published 2020).

Where two headings read alike, the source gives them in different places.

With “hydrogel-[N28Q]exenatide microspheres R^1=CN: PEG hydrogel microspheres coupled with Nα-[1-cyano-7-azido-2-heptyloxycarbonyl]-[N28Q]exenatide”, the “control of blood glucose” value in series [1] is on record as “effective at controlling blood glucose for at least one month”. Moreover, the “half-life of first-order release of free peptide” value in series [2] was found to be 0.688 days. For the same substance, the t1/2 in series [3] turned out to be 31.7 days. Besides, in series [4], the AUCinf stood at 448 ± 91 nM-hr; the maximum concentration (Cmax) came out at 0.36 nM; the “Dose adjusted: Cmax, 0” value is reported as 0.17 nM/(μmol/kg); the “k × 10^4 ± SE” value is 7.8 ± 1.3 h^−1. The same substance had a t1/2 in series [4] of 36.8 days. For the same substance, the “t1/2,β” value in series [4] (sc) was determined as 36.7 days. Moreover, in series [5], the AUCinf is reported as 800 ± 323 nM-hr; the Cmax was 0.81 nM; the “Dose adjusted: Cmax, 0” value is reported as 0.18 nM/(μmol/kg); the “k × 10^4 ± SE” value was 9.5 ± 1.0 h^−1. In series [5], this substance came in with a t1/2 of 30.4 days.
